This note sets out measurements from the supplement of paper PMC5998384.

Series [1] deals with HeLa Kyoto. Kind of series: solubility in G1/S (NP-40 vs SDS abundance) (log2 ratio); higher = more soluble. The following applies: cell cycle stage: G1/S.
Series [2] deals with HeLa Kyoto. Kind of series: melting temperature (median over replicates), in situ; higher = more thermally stable.
Series [3] relates to HeLa Kyoto. The series is described as follows: solubility change mitosis vs G1/S (difference of NP-40 vs SDS log2 ratios) (log2 ratio difference); higher = more soluble in mitosis.
Series [4] relates to HeLa Kyoto. The series is described as follows: thermal stability score vs G1/S (z-score of summed log2 fold changes over temperatures); higher = more thermally stable than in G1/S.
Where [5] appears, read: cell cycle stage: early G1 (4.5 h after nocodazole release).
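Throughout, for melting temperature (median over replicates), in situ: HeLa Kyoto cells synchronized by double thymidine or nocodazole block, proteins quantified by TMT10plex mass spectrometry, three independent biological replicates.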
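Throughout, for solubility change mitosis vs G1/S (difference of NP-40 vs SDS log2 ratios): synchronized HeLa Kyoto cells (double thymidine block for G1/S, nocodazole release for mitosis), protein amounts in NP-40 versus SDS lysates quantified by mass spectrometry, three biological replicates.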
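Throughout, for solubility in G1/S (NP-40 vs SDS abundance): HeLa Kyoto cells arrested at G1/S by double thymidine block, proteins quantified by TMT10plex mass spectrometry in mild NP-40 versus SDS extracts, three biological replicates.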
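Throughout, for thermal stability score vs G1/S (z-score of summed log2 fold changes over temperatures): synchronized HeLa Kyoto cells, proteins quantified by TMT10plex mass spectrometry, three biological replicates, mitosis taken 0.5 h after nocodazole release, G1/S directly after double thymidine block.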

Regarding “MAAAAECDVVMAATEPELLDDQEAKREAETFKEQGNAYYAKKDYNEAYNYYTKAIDMCPKNASYYGNRAATLMMLGRFREALGDAQQSVRLDDSFVRGHLREGKCHLSLGNAMAACRSFQRALELDHKNAQAQQEFKNANAVMEYEKIAETDFEKRDFRKVVFCMDRALEFAPACHRFKILKAECLAMLGRYPEAQSVASDILRMDSTNADALYVRGLCLYYEDCIEKAVQFFVQALRMAPDHEKACIACRNAKALKAKKEDGNKAFKEGNYKLAYELYTEALGIDPNNIKTNAKLYCNRGTVNSKLRKLDDAIEDCTNAVKLDDTYIKAYLRRAQCYMDTEQYEEAVRDYEKVYQTEKTKEHKQLLKNAQLELKKSKRKDYYKILGVDKNASEDEIKKAYRKRALMHHPDRHSGASAEVQKEEEKKFKEVGEAFTILSDPKKKTRYDSGQDLDEEGMNMGDFDPNNIFKAFFGGPGGFSFEASGPGNFFFQFG [DNAJC7]”, the “solubility in G1/S (log2)” value in series [1] was determined as 0.556. The values for the melting temperature in series [2] (cell cycle stage: G1/S) and in series [2] (cell cycle stage: mitosis) were 48.8 °C and 49.3 °C, respectively. For the same sequence, the “solubility change mitosis (log2)” value in series [3] was -0.0134. In addition, the thermal stability score in series [4] (setting [5]) came to 0.609; in series [4] (cell cycle stage: mitosis) it was 1.11.

Take “MAAAAGAAAAAAAEGEAPAEMGALLLEKETRGATERVHGSLGDTPRSEETLPKATPDSLEPAGPSSPASVTVTVGDEGADTPVGATPLIGDESENLEGDGDLRGGRILLGHATKSFPSSPSKGGSCPSRAKMSMTGAGKSPPSVQSLAMRLLSMPGAQGAAAAGSEPPPATTSPEGQPKVHRARKTMSKPGNGQPPVPEKRPPEIQHFRMSDDVHSLGKVTSDLAKRRKLNSGGGLSEELGSARRSGEVTLTKGDPGSLEEWETVVGDDFSLYYDSYSVDERVDSDSKSEVEALTEQLSEEEEEEEEEEEEEEEEEEEEEEEEDEESGNQSDRSGSSGRRKAKKKWRKDSPWVKPSRKRRKREPPRAKEPRGVNGVGSSGPSEYMEVPLGSLELPSEGTLSPNHAGVSNDTSSLETERGFEELPLCSCRMEAPKIDRISERAGHKCMATESVDGELSGCNAAILKRETMRPSSRVALMVLCETHRARMVKHHCCPGCGYFCTAGTFLECHPDFRVAHRFHKACVSQLNGMVFCPHCGEDASEAQEVTIPRGDGVTPPAGTAAPAPPPLSQDVPGRADTSQPSARMRGHGEPRRPPCDPLADTIDSSGPSLTLPNGGCLSAVGLPLGPGREALEKALVIQESERRKKLRFHPRQLYLSVKQGELQKVILMLLDNLDPNFQSDQQSKRTPLHAAAQKGSVEICHVLLQAGANINAVDKQQRTPLMEAVVNNHLEVARYMVQRGGCVYSKEEDGSTCLHHAAKIGNLEMVSLLLSTGQVDVNAQDSGGWTPIIWAAEHKHIEVIRMLLTRGADVTLTDNEENICLHWASFTGSAAIAEVLLNARCDLHAVNYHGDTPLHIAARESYHDCVLLFLSRGANPELRNKEGDTAWDLTPERSDVWFALQLNRKLRLGVGNRAIRTEKIICRDVARGYENVPIPCVNGVDGEPCPEDYKYISENCETSTMNIDRNITHLQHCTCVDDCSSSNCLCGQLSIRCWYDKDGRLLQEFNKIEPPLIFECNQACSCWRNCKNRVVQSGIKVRLQLYRTAKMGWGVRALQTIPQGTFICEYVGELISDAEADVREDDSYLFDLDNKDGEVYCIDARYYGNISRFINHLCDPNIIPVRVFMLHQDLRFPRIAFFSSRDIRTGEELGFDYGDRFWDIKSKYFTCQCGSEKCKHSAEAIALEQSRLARLDPHPELLPELGSLPPVNT [EHMT2]”: the “solubility in G1/S (log2)” value in series [1] is -0.563. Moreover, the melting temperature in series [2] (cell cycle stage: G1/S) was found to be 50.1 °C; in series [2] (cell cycle stage: mitosis), 49.9 °C. In series [3], the “solubility change mitosis (log2)” value came to 0.189. For the same sequence, the thermal stability score came to 1.11 in series [4] (setting [5]) and 1.87 in series [4] (cell cycle stage: mitosis).

As to “MAAAAGDADDEPRSGHSSSEGECAVAPEPLTDAEGLFSFADFGSALGGGGAGLSGRASGGAQSPLRYLHVLWQQDAEPRDELRCKIPAGRLRRAARPHRRLGPTGKEVHALKRLRDSANANDVETVQQLLEDGADPCAADDKGRTALHFASCNGNDQIVQLLLDHGADPNQRDGLGNTPLHLAACTNHVPVITTLLRGGARVDALDRAGRTPLHLAKSKLNILQEGHAQCLEAVRLEVKQIIHMLREYLERLGQHEQRERLDDLCTRLQMTSTKEQVDEVTDLLASFTSLSLQMQSMEKR [ANKRD54]”, in series [1], the “solubility in G1/S (log2)” value is 0.0925. For the same sequence, the melting temperature in series [2] (cell cycle stage: G1/S) came out at 51 °C. For the same sequence, the “solubility change mitosis (log2)” value in series [3] was -0.169. Also, the thermal stability score was determined as 0.324 in series [4] (setting [5]) and 3.1 in series [4] (cell cycle stage: mitosis).

As for “MAAAAGSCARVAAWGGKLRRGLAVSRQAVRSPGPLAAAVAGAALAGAGAAWHHSRVSVAARDGSFTVSAQKNVEHGIIYIGKPSLRKQRFMQFSSLEHEGEYYMTPRDFLFSVMFEQMERKTSVKKLTKKDIEDTLSGIQTAGCGSTFFRDLGDKGLISYTEYLFLLTILTKPHSGFHVAFKMLDTDGNEMIEKREFFKLQKIISKQDDLMTVKTNETGYQEAIVKEPEINTTLQMRFFGKRGQRKLHYKEFRRFMENLQTEIQEMEFLQFSKGLSFMRKEDFAEWLLFFTNTENKDIYWKNVREKLSAGESISLDEFKSFCHFTTHLEDFAIAMQMFSLAHRPVRLAEFKRAVKVATGQELSNNILDTVFKIFDLDGDECLSHEEFLGVLKNRMHRGLWVPQHQSIQEYWKCVKKESIKGVKEVWKQAGKGLF [MICU2]”, the “solubility in G1/S (log2)” value in series [1] is -0.297. In addition, the melting temperature in series [2] (cell cycle stage: G1/S) and in series [2] (cell cycle stage: mitosis) was 52.1 °C in each case. In series [3], the “solubility change mitosis (log2)” value was -0.111. For the same sequence, the figures for the thermal stability score in series [4] (setting [5]) and in series [4] (cell cycle stage: mitosis) were 0.279 and 0.383, respectively.

As for “MAAAALGQIWARKLLSVPWLLCGPRRYASSSFKAADLQLEMTQKPHKKPGPGEPLVFGKTFTDHMLMVEWNDKGWGQPRIQPFQNLTLHPASSSLHYSLQLFEGMKAFKGKDQQVRLFRPWLNMDRMLRSAMRLCLPSFDKLELLECIRRLIEVDKDWVPDAAGTSLYVRPVLIGNEPSLGVSQPTRALLFVILCPVGAYFPGGSVTPVSLLADPAFIRAWVGGVGNYKLGGNYGPTVLVQQEALKRGCEQVLWLYGPDHQLTEVGTMNIFVYWTHEDGVLELVTPPLNGVILPGVVRQSLLDMAQTWGEFRVVERTITMKQLLRALEEGRVREVFGSGTACQVCPVHRILYKDRNLHIPTMENGPELILRFQKELKEIQYGIRAHEWMFPV [BCAT2]”, in series [1], the “solubility in G1/S (log2)” value was -0.077. The melting temperature in series [2] (cell cycle stage: G1/S) is 55.4 °C; in series [2] (cell cycle stage: mitosis) it was 55.1 °C. Further, the “solubility change mitosis (log2)” value in series [3] was -0.156. Also, the thermal stability score in series [4] (setting [5]) is -0.771; in series [4] (cell cycle stage: mitosis) it was -0.0554.

On to “MAAAALRRFWSRRRAEAGDAVVAKPGVWARLGSWARALLRDYAEACRDASAEARARPGRAAVYVGLLGGAAACFTLAPSEGAFEEALLEASGTLLLLAPATRNRESEAFVQRLLWLRGRGRLRYVNLGLCSLVYEAPFDAQASLYQARCRYLQPRWTDFPGRVLDVGFVGRWWVLGAWMRDCDINDDEFLHLPAHLRVVGPQQLHSETNERLFDEKYKPVVLTDDQVDQALWEEQVLQKEKKDRLALSQAHSLVQAEAPR [C19ORF52]”, for which, in series [1], the “solubility in G1/S (log2)” value was -0.131. In addition, the melting temperature in series [2] (cell cycle stage: G1/S) came to 53.5 °C; in series [2] (cell cycle stage: mitosis), 53.8 °C. Further, the “solubility change mitosis (log2)” value in series [3] is -0.13. Moreover, the thermal stability score in series [4] (setting [5]) came to 0.683; in series [4] (cell cycle stage: mitosis) it was 0.243.

Regarding “MAAAAQLSLTQLSSGNPVYEKYYRQVDTGNTGRVLASDAAAFLKKSGLPDLILGKIWDLADTDGKGILNKQEFFVALRLVACAQNGLEVSLSSLNLAVPPPRFHDTSSPLLISGTSAAELPWAVKPEDKAKYDAIFDSLSPVNGFLSGDKVKPVLLNSKLPVDILGRVWELSDIDHDGMLDRDEFAVAMFLVYCALEKEPVPMSLPPALVPPSKRKTWVVSPAEKAKYDEIFLKTDKDMDGFVSGLEVREIFLKTGLPSTLLAHIWSLCDTKDCGKLSKDQFALAFHLISQKLIKGIDPPHVLTPEMIPPSDRASLQKNIIGSSPVADFSAIKELDTLNNEIVDLQREKNNVEQDLKEKEDTIKQRTSEVQDLQDEVQRENTNLQKLQAQKQQVQELLDELDEQKAQLEEQLKEVRKKCAEEAQLISSLKAELTSQESQISTYEEELAKAREELSRLQQETAELEESVESGKAQLEPLQQHLQDSQQEISSMQMKLMEMKDLENHNSQLNWCSSPHSILVNGATDYCSLSTSSSETANLNEHVEGQSNLESEPIHQESPARSSPELLPSGVTDENEVTTAVTEKVCSELDNNRHSKEEDPFNVDSSSLTGPVADTNLDFFQSDPFVGSDPFKDDPFGKIDPFGGDPFKGSDPFASDCFFRQSTDPFATSSTDPFSAANNSSITSVETLKHNDPFAPGGTVVAASDSATDPFASVFGNESFGGGFADFSTLSKVNNEDPFRSATSSSVSNVVITKNVFEETSVKSEDEPPALPPKIGTPTRPCPLPPGKRSINKLDSPDPFKLNDPFQPFPGNDSPKEKDPEIFCDPFTSATTTTNKEADPSNFANFSAYPSEEDMIEWAKRESEREEEQRLARLNQQEQEDLELAIALSKSEISEA [EPS15]”, the “solubility in G1/S (log2)” value in series [1] amounted to 0.2. The results for the melting temperature in series [2] (cell cycle stage: G1/S) and in series [2] (cell cycle stage: mitosis) were 51 °C and 51.5 °C, respectively. The “solubility change mitosis (log2)” value in series [3] is -0.117. Further, the thermal stability score was determined as 0.399 in series [4] (setting [5]) and 1.19 in series [4] (cell cycle stage: mitosis).
